Literature values as cited in publication PMC2817915.
“And” between values parts separate entries of the source, which are not always exact repeats. Equal values may be shown once.

Legend:
Conditions in all cases: native HEWL; ligand state not stated
Asp101 = Asp101 (UniProt position 119, KKIVSDGNGMN)
Asp119 = Asp119 (UniProt position 137, RCKGTDVQAWI)
Asp18 = Asp18 (UniProt position 36, KRHGLDNYRGY)
Asp48 = Asp48 (UniProt position 66, TNRNTDGSTDY)
Asp52 = Asp52 (UniProt position 70, TDGSTDYGILQ)
Asp66 = Asp66 (UniProt position 84, RWWCNDGRTPG)
Asp87 = Asp87 (UniProt position 105, ALLSSDITASV)
Glu35 = Glu35 (UniProt position 53, CAAKFESNFNT)
Glu7 = Glu7 (UniProt position 25, VFGRCELAAAM)
His15 = His15 (UniProt position 33, AAMKRHGLDNY)

Substance: Hen egg-white lysozyme (HEWL, lysozyme C) (Gallus gallus)
- pKa (Asp101): 4.09
- pKa (Asp119): 3.20
- pKa (Asp18): 2.66
- pKa (Asp48): 2.50
- pKa (Asp52): 3.68 and 3.6−3.76
- pKa (Asp66): 2.00
- pKa (Asp87): 2.07
- pKa (Glu35): 6.20
- pKa (Glu7): 2.85
- pKa (His15): 5.71
